Experimental data from article PMC3887213.
Substitutions are numbered along the chain they refer to.

B1: LRRK2 RocCOR tandem domain (LexA-BD bait, wild type) [human] / TUBB4 C terminus (Phe-317 to Ala-444), GAL4-AD prey [human] (parent)
chain 1: KAVPYNRMKLMIVGNTGSGKTTLLQQLMKTKKSDLGMQSATVGIDVKDWPIQIRDKRKRDLVLNVWDFAGREEFYSTHPHFMTQRALYLAVYDLSKGQAEVDAMKPWLFNIKARASSSPVILVGTHLDVSDEKQRKACMSKITKELLNKRGFPAIRDYHFVNATEESDALAKLRKTIINESLNFKIRDQLVVGQLIPDCYVELEKIILSERKNVPIEFPVIDRKRLLQLVRENQLQLDENELPHAVHFLNESGVLLHFQDPALQLSDLYFVEPKWLCKIMAQILTVKVEGCPKHPKGIISRRDVEKFLSKKRKFPKNYMSQYFKLLEKFQIALPIGEEYLLVPSSLSDHRPVIELPHCENSEIIIRLYEMPYFPMGFWSRLINRLLEISPYMLSGRERALRPNRMYWRQGIYL
chain 2: FRGRMSMKEVDEQMLSVQSKNSSYFVEWIPNNVKTAVCDIPPRGLKMAATFIGNSTAIQELFKRISEQFTAMFRRKAFLHWYTGEGMDEMEFTEAESNMNDLVSEYQQYQDATAEEGEFEEEAEEEVA
B2: LRRK2 RocCOR tandem domain (LexA-BD bait, wild type) [human] / TUBB C terminus (Phe-317 to the stop codon), GAL4-AD prey [human] (parent)
chain 1: B1 chain 1
chain 2: B1 chain 2 with S16N, S19N, A49V, G117E, F119D, E120F, E121G, A123E, E124A, V127E

Variants of: B1
Experiment: quantitative yeast two-hybrid (Q-YTH)
Details: with TUBB4 C terminus (Phe-317 to Ala-444), n = 5, read off a plot

Row | percent of parent [%] | Variant
1 | 62 | chain 1 T16D
2 | 115 | chain 1 T16A
3 | 86 | chain 1 T164A

Variants of: B2
Experiment: quantitative yeast two-hybrid (Q-YTH)
Details: with TUBB C terminus (Phe-317 to the stop codon), n = 5, read off a plot

Row | percent of parent [%] | Variant
4 | 130 | chain 1 T16A
5 | 58 | chain 1 T16D
6 | 97 | chain 1 T164A
7 | 35 | chain 1 T164D
